Tests used:
[1] = target: Human recombinant CD13 (human) (UniProt P15144)
[2] = target: T1, CD13 on the surface of mouse articular chondrocytes (mouse (endogenous in primary articular chondrocytes)) (UniProt P97449)
T1 sequence: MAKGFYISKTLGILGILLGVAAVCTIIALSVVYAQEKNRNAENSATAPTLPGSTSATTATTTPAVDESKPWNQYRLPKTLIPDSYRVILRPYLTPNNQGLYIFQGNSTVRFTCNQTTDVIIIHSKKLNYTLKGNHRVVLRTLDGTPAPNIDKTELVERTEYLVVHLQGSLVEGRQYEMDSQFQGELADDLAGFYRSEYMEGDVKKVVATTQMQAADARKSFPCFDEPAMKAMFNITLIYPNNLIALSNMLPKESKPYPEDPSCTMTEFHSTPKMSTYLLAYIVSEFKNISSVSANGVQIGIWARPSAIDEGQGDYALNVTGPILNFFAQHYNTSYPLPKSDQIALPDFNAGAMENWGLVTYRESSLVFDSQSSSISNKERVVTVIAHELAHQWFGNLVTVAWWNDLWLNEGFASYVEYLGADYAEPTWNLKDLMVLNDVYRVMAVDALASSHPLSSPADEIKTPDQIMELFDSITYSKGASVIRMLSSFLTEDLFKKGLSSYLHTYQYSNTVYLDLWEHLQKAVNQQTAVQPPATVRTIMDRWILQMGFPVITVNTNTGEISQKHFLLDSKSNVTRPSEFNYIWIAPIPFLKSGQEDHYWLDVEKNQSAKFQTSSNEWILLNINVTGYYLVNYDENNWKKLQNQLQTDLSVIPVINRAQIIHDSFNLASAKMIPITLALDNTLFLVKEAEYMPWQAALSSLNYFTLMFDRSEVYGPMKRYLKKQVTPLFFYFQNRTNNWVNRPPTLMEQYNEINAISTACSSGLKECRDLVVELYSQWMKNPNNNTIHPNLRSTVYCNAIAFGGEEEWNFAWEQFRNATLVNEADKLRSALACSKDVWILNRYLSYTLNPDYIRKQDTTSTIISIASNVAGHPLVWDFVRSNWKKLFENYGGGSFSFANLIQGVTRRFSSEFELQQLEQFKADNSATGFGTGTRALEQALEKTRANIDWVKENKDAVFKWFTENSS

[3] = target: Human recombinant CD13 (human) (UniProt P15144); experiment: SPR; Biacore 3000; human recombinant CD13 amine-coupled to a CM5 chip (11,949 RU, 10 mM sodium acetate pH 5.0); analytes in HBS-EP (10 mM HEPES pH 7.4, 150 mM NaCl, 3 mM EDTA, 0.005% P20), 5 µl/min, 5 min injection, 8 min dissociation; 14-3-3ε 10 µM, antibodies 1 µg/ml; kinetics with 0, 5, 7.5, 10, 15, 20 µM 14-3-3ε; blank surface subtracted
[4] = target: T1, CD13 on the surface of mouse articular chondrocytes (mouse (endogenous in primary articular chondrocytes)); remark: listed apart in the source

Sequence of UniProt P15144 (P15144 whole entry): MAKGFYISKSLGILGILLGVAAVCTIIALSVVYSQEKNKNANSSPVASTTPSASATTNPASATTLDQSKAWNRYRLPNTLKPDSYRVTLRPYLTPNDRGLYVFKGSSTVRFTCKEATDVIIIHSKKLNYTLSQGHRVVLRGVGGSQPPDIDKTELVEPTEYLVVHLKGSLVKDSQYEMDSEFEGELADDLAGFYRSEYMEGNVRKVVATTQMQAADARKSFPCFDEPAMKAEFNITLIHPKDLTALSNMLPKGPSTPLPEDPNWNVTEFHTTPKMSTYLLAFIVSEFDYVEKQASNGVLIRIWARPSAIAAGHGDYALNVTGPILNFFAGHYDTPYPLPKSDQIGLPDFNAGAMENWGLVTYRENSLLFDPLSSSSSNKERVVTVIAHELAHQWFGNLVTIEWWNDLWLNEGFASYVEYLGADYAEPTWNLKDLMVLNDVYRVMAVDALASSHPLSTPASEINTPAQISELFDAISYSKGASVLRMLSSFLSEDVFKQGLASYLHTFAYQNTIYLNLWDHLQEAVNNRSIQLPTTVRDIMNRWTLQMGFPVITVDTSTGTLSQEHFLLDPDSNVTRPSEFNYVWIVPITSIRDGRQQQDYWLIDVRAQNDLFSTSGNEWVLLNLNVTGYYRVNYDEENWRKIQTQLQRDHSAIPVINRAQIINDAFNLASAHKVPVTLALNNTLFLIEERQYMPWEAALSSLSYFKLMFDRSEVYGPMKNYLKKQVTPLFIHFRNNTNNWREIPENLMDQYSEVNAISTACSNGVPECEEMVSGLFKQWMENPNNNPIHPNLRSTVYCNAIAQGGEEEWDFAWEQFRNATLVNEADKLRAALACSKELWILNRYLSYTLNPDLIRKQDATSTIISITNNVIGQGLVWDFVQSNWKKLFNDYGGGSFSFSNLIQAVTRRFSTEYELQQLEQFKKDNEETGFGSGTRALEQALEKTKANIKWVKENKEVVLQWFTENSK

- decrease of 14-3-3ε-induced MMP-3 mRNA expression (qRT-PCR) in human osteoarthritis chondrocytes (endogenous human CD13) by anti-CD13 blocking antibody SJ1D1, 1 µg/ml [1]: 43%
- decrease of 14-3-3ε-induced MMP-3 protein release (ELISA) in human osteoarthritis chondrocytes (endogenous human CD13) by anti-CD13 blocking antibody SJ1D1, 1 µg/ml [1]: 59%
- decrease of 14-3-3ε (1 µg/ml)-induced MMP-13 mRNA synthesis (qRT-PCR) in mouse chondrocytes by the synthetic CD13 peptide EFNpYVW, 0.5 and 5 µg/ml (30% to 56%) [2]: 56%
- inhibition of 14-3-3ε (1 µg/ml)-induced MMP-3 mRNA production (qRT-PCR) in mouse chondrocytes by the synthetic CD13 peptide EFNpYVW, 0.5 and 5 µg/ml (48% to 62%) [2]: 62%
- Kd [3]: 2450 nM
- response (resonance units) at 10 µM [3]: 78 RU
- decrease of 14-3-3ε (1 µg/ml)-induced MMP-13 mRNA expression (qRT-PCR) in murine chondrocytes by anti-CD13 blocking antibody AB108310, 1 and 5 µg/ml (47% to 88%) [4]: 88%
- decrease of 14-3-3ε (1 µg/ml)-induced MMP-13 release (ELISA) in murine chondrocytes by anti-CD13 blocking antibody AB108310, 1 and 5 µg/ml (29% to 32%, P>0.05) [4]: 32%
- inhibition of 14-3-3ε (1 µg/ml)-induced MMP-3 mRNA expression (qRT-PCR) in murine chondrocytes by anti-CD13 blocking antibody AB108310, 1 and 5 µg/ml (64% to 90%) [4]: 90%
- inhibition of 14-3-3ε (1 µg/ml)-induced MMP-3 protein release (ELISA) in murine chondrocytes by anti-CD13 blocking antibody AB108310, 1 and 5 µg/ml (61% to 87%) [4]: 87%
Substance: Recombinant human 14-3-3ε (from UniProt P62258 1-255) (natural protein)
